Measurements published in PMC6274998, “Mycobacterium tuberculosis ClpC1 N-Terminal Domain Is Dispensable for Adaptor Protein-Dependent Allosteric Regulation” (International Journal of Molecular Sciences, 2018).

What was measured:
ClpS (Escherichia coli) = ClpS (Escherichia coli) (UniProt P0A8Q6); settings: cited from earlier work
[1] = target: ClpS (additional molecules) (Escherichia coli) (UniProt P0A8Q6); settings: cited from earlier work
[2] = target: full-length Mycobacterium tuberculosis ClpC1 (Mycobacterium tuberculosis H37Rv) (UniProt P9WPC9)
Sequence of full-length Mycobacterium tuberculosis ClpC1 (Mycobacterium tuberculosis H37Rv) (P9WPC9 whole entry): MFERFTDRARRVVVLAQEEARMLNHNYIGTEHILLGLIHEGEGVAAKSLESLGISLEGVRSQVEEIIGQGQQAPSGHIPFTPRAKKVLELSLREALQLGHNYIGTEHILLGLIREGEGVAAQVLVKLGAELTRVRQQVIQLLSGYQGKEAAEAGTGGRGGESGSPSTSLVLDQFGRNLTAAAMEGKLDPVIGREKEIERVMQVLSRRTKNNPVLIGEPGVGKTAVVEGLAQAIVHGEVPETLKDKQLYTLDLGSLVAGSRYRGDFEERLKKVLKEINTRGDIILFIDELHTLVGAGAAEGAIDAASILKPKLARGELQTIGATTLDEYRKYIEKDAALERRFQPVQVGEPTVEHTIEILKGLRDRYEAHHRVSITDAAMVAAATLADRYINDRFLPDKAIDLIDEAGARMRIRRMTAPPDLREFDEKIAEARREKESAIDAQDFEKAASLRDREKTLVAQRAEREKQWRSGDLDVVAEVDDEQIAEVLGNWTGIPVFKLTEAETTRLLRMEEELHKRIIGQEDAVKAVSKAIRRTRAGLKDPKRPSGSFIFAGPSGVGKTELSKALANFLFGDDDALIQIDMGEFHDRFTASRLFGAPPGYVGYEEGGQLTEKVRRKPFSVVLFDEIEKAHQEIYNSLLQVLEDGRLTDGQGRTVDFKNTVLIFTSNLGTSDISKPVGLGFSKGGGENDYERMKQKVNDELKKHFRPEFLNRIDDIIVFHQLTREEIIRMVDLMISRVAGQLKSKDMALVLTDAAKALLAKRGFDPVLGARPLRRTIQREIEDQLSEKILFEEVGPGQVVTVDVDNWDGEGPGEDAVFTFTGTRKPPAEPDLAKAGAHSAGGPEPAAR

[3] = target: T1, full-length Mycobacterium tuberculosis ClpC1 (Mycobacterium tuberculosis H37Rv, UniProt P9WPC9 1-848); assay: pull-down; settings: both partners purified
T1 construct: ClpC1 AAA+ ATPase, M. tuberculosis H37Rv, Rv3596c, full length; also called wild-type M. tuberculosis ClpC1; Full-Length ClpC1; not shown: His6-SUMO, N-terminal, cleaved
T1 sequence (P9WPC9 whole entry): as above

Sequence of ClpS (additional molecules) (Escherichia coli) (P0A8Q6 whole entry): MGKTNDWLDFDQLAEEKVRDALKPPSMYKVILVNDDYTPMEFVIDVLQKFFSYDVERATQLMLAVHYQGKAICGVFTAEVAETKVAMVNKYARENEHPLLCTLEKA
Sequence of ClpS (Escherichia coli) (P0A8Q6 whole entry): as above

## ClpA (from UniProt P0ABH9)
ClpS (Escherichia coli)
  Kd: 40 nM
[1]
  Kd: > 700 nM

B1: Mycobacterium tuberculosis ClpS (His6-SUMO tag removed) (natural protein)
chain: MAVVSAPAKPGTTWQRESAPVDVTDRAWVTIVWDDPVNLMSYVTYVFQKLFGYSEPHATKLMLQVHNEGKAVVSAGSRESMEVDVSKLHAAGLWATMQQDR
[2]
  average binding stoichiometry inferred from k (UF,app) against [ClpS]T/[ClpC1]T, stopped-flow unfolding of SsrA-KaedeRed (ClpC1 subunits per ClpS): 2
  inflection point of k (UF,app) against the ratio of total ClpS to total ClpC1 monomer concentration, stopped-flow unfolding of SsrA-KaedeRed ([ClpS]T/[ClpC1]T): 0.65

B2: His6-SUMO-ClpS (Mycobacterium tuberculosis ClpS adaptor protein, His6-SUMO fusion) (natural protein)
chain: MAVVSAPAKPGTTWQRESAPVDVTDRAWVTIVWDDPVNLMSYVTYVFQKLFGYSEPHATKLMLQVHNEGKAVVSAGSRESMEVDVSKLHAAGLWATMQQDR
notes: also called His6-ClpS; His6-tagged ClpS; not shown: His6, N-terminal, kept; SUMO, N-terminal, kept
[3]
  binding result: binds
